Source: the PETadex activity labels (doi:10.1073/pnas.2006753117)
Changes are numbered by the printed parent chain.

B1: unnamed (protein)
chain: MQTTVTTMLLASVALAACAGGGSTPLPLPQQQPPQQEPPPPPVPLASRAACEALKDGNGDMVWPNAATVVEVAAWRDAAPATASAAALPEHCEVSGAIAKRTGIDGYPYEIKFRLRMPAEWNGRFFMEGGSGTNGSLSAATGSIGGGQIASALSRNFATIATDGGHDNAVNDNPDALGTVAFGLDPQARLDMGYNSYDQVTQAGKAAVARFYGRAADKSYFIGWSEGGREGMMLSQRFPSHYDGIVAGAPWDSSTNFDLAAFRDRGGKMILYHGMSDAAFSALDTADYYERLGAAMPGAAGFARLFLVPGMNHSSGGPGTDRFDMLTPLVAWVERGEAPDQISAWSGTPGYFGVAARTRPLCPYPQIARYKGSGDINTEANFACAAPP
B2: unnamed (protein)
chain: B1 chain with W224H, S314F
B3: unnamed (protein)
chain: B1 chain with W224C, S314C
B4: unnamed (protein)
chain: MQTTVTTMLLASVALAACAGGGSTPLPLPQQQPPQQEPPPPPVPLASRAACEALKDGNGDMVWPNAATVVEVAAYVPAGVNISMADNPSICGGDEDPITSTFAFCEVSGAIAKRTGIDGYPYEIKFRLRMPAEWNGRFFMEGGSGTNGCLSAATGSIGGGQIASALSRNFATIATDGGHDNAVNDNPDALGTVAFGLDPQARLDMGYNSYDQVTQAGKAAVARFYGRAADKSYFIGCSEGGREGMMLSQRFPSHYDGIVAGAPGYQLPKAGISGAWTTQSLAPAAVGLDAQGVPLINKSFSDADLHLLSQAILGTCDALDGLADGIVDNYRACQAAFDPATAANPANGQALQCVGAKTADCLSPVQVTAIKRAMAGPVNSAGTPLYNRWAWDAGMSGLSGTTYNQGWRSWWLGSFNSSANNAQRVSGFSARSWLVDFATPPEPMPMTQVAARMMKFDFDIDPLKIWATSGQFTQSSMDWHGATSTDLAAFRDRGGKMILYHCMSDAAFSALDTADYYERLGAAMPGAAGFARLFLVPGMNHCCGGPGTDRFDMLTPLVAWVERGEAPDQISAWSGTPGYFGVAARTRPLCPYPQIARYKGSGDINTEANFACAAPP
B5: unnamed (protein)
chain: MQTTVTTMLLASVALAACAGGGSTPLPLPQQQPPQQEPPPPPVPLASRAACEALKDGNGDMVWPNAATVVEVAAWRDAAPATASAAALPEHCEVSGAIAKRTGIDGYPYEIKFRLRMPAEWNGRFFMEGGGGTNGSLSAATGSIGGGQIASALSRNFATIATDGGHDNAVNDNPDALGTVAFGLDPQARLDMGYNSYDQVTQAGKAAVARFYGRAADKSYFIGCSEGGREGMMLSQRFPSHYDGIVAGAPGYQLPKAGISGAWTTQSLAPAAVGLDAQGVPLINKSFSDADLHLLSQAILGTCDALDGLADGIVDNYRACQAAFDPATAANPANGQALQCVGAKTADCLSPVQVTAIKRAMAGPVNSAGTPLYNRWAWDAGMSGLSGTTYNQGWRSWWLGSFNSSANNAQRVSGFSARSWLVDFATPPEPMPMTQVAARMMKFDFDIDPLKIWATSGQFTQSSMDWHGATSTDLAAFRDRGGKMILYHGMSDAAFSALDTADYYERLGAAMPGAAGFARLFLVPGMNHCSGGPGTDRFDMLTPLVAWVERGEAPDQISAWSGTPGYFGVAARTRPLCPYPQIARYKGSGDINTEANFACAAPP
B6: unnamed (protein)
chain: B5 chain with G131S, E226T
B7: unnamed (protein)
chain: B5 chain with G131S, F495I
B8: unnamed (protein)
chain: B5 chain with G131S, S225A
B9: unnamed (protein)
chain: MNFPRASRLMQAAVLGGLMAVSAAATAQTNPYARGPNPTAASLEASAGPFTVRSFTVSRPSGYGAGTVYYPTNAGGTVGAIAIVPGYTARQSSIKWWGPRLASHGFVVITIDTNSTLDQPSSRSSQQMAALRQVASLNGTSSSPIYGKVDTARMGVMGWSMGGGGSLISAANNPSLKAAAPQAPGYQLPKAGISGAWTTQSLAPAAVGLDAQGVPLINKSFSDADLHLLSQAILGTCDALDGLADGIVDNYRACQAAFDPATAANPANGQALQCVGAKTADCLSPVQVTAIKRAMAGPVNSAGTPLYNRWAWDAGMSGLSGTTYNQGWRSWWLGSFNSSANNAQRVSGFSARSWLVDFATPPEPMPMTQVAARMMKFDFDIDPLKIWATSGQFTQSSMDWHGATSTSSVTVPTLIFACENDSIAPVNSSALPIYDSMSRNAKQFLEINGGSHSCANSGNSNQALIGKKGVAWMKRFMDNDTRYSTFACENPNSTRVSDFRTANCS
B10: unnamed (protein)
chain: MFVRNADRAKNCMRAPLRVFPLKDTFSAQCANVSVWITSSVPPLRERHMDRRVTRRDLMQTRILLMLIAATGVAACGGDGGSTPAAQNPPLPLASRAACEAFQGNSNSIAWPHRATVVEVATWHEAEPANATAAATPEHCEISGAIARRTGIDGYPYEIKFRLRMPSEWNGRFFMEGGGGTNGSLSAATGSLGGGQTASALSRNFATIATDGGHDNAVNNNPDALGTVAFGMDPQARIDMGYNSYDQVTQAGKAAVAQFYGRAPDKSYFIGCSEGGREGMMLSQRFPSHYDGIVAGAPGYQLPKAGISGAWTTQSLAPAAVGVDAQNVPLINKAFSDVDLHLLSRGILGTCDALDGLSDGIVNDFRACQAAFDPATALNPDTSQPLQCTGAKTPDCLSAAQVTGIKRAMGGPVDSAGAALYNRWAWDPGMSGLNGTSYNQGWRSWWLGSYASSTNNAQRVNGFSARSWLVDFATPPEPMPVTQVAARMMNFNFDTDPPKIRATSGPFTPSSMEWHGATSTNLAAFRDRGGKLMLYHGMSDAAFSALDTADYYERLGAAMPGAAGFARLFLVPGMNHCSGGPGTDRFDMLTPLVAWVERDKAPDQVSAWAGTPGYFGATARTRPLCPYPQIARYKGSGDINAEASFVCVAP

Substrate: MHET
Test: Proxy for plastic degradation [kcat] (s⁻¹)
Conditions: pH 7.5

Protein	Proxy for plastic degradation
B1	0.1
B2	0.06
B3	0.05
B4	0.16
B5	11
B6	14
B7	1.3
B8	0
B9	0.11
B10	9.5
